From IntAct's records for PubMed 15385968

Molecular target: xrcc4_human XRCC4 (UniProt Q13426)
Sequence (Q13426 whole entry): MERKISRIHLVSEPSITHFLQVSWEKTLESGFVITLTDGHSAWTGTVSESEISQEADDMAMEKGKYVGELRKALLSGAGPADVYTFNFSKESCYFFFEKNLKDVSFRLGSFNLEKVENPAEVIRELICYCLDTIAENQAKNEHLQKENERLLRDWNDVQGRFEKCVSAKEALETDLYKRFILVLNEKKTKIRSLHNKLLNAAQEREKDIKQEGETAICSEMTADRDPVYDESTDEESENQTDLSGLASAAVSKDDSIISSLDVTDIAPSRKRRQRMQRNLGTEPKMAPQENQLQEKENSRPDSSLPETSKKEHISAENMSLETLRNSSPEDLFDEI

effect of a mutation on the interaction: disrupting interaction
Substance: Bifunctional polynucleotide phosphatase/kinase (Homo sapiens), Q96T60 R35A
